Measured values published in US20250353904A1 (INSTITUTE OF SCIENCE TOKYO, published 2025).

T1: human disulfide HMGB1 (human, UniProt P09429 1-215, disulfide form (ds-HMGB1) as printed; the cysteines involved are not stated)
T1 construct: also called human dsHMGB1; ds-HMGB1
T1 sequence (looked up): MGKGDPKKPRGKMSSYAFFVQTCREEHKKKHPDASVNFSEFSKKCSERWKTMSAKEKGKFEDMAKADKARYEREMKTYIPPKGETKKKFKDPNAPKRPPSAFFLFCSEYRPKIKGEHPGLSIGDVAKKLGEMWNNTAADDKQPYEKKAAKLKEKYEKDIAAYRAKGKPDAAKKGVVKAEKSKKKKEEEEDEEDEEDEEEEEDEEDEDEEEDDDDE

T2: human reduced HMGB1 (human, UniProt P09429 1-215, reduced form as printed)
T2 sequence (looked up): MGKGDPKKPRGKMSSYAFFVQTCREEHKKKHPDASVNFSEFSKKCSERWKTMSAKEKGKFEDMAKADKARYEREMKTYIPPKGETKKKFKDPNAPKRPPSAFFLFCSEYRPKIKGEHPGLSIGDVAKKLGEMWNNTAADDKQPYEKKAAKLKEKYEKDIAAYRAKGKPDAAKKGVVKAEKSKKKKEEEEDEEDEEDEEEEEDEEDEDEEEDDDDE


How the values were obtained:
[1] = biological target: human HMGB1 protein (human) (UniProt P09429); test: SPR, Biacore T100, antibody immobilized on chip, human HMGB1 as analyte
human disulfide HMGB1 [2] = biological target: T1, human disulfide HMGB1; test: SPR, antibody after against before 6-month storage at 4 C
human disulfide HMGB1 [3] = biological target: T1, human disulfide HMGB1; test: ELISA, saturation curve: concentration of bound antibody against concentration of added antibody, on human dsHMGB1
human reduced HMGB1 [4] = biological target: T2, human reduced HMGB1; test: ELISA, saturation curve: concentration of bound antibody against concentration of added antibody, on human reduced HMGB1
human disulfide HMGB1 [5] = biological target: T1, human disulfide HMGB1; test: SPR, antibody after 6-month storage at 4 C; unit inferred; after storage for 6 months at 4° C
human reduced HMGB1 [6] = biological target: T2, human reduced HMGB1; test: SPR as in Example 1; unit inferred; human reduced HMGB1
human disulfide HMGB1 [7] = biological target: T1, human disulfide HMGB1; test: SPR as in Example 1; unit inferred; human dsHMGB1; before storage

Kd [1] [nM]	fold increase of KD after storage against before storage (human disulfide HMGB1 [2]) [fold]	Kd (human disulfide HMGB1 [3]) [nM]	Kd (human reduced HMGB1 [4]) [nM]	Km (human reduced HMGB1 [4])	Kd (human disulfide HMGB1 [5]) [nM]	Kd (human reduced HMGB1 [6]) [nM]	Kd (human disulfide HMGB1 [7]) [nM]	Binder
1.95								mouse monoclonal antibody 2C8C (antibody, from another filing, V domains shown) VH: QVQLQQSGPELVKPGASVKLSCKASGYTFTDYTIHWVKQSPGQGLEWIGWIYPGSGNTKYNDKFKGKATMTADKSSSTAYMQLSSLTSEDSAVYFCARGFAYWGQGTLVTVSA VL: DIVLTQSPATLSVTPGDSVSLSCRASQSISNNLHWYQQKSHESPRLLIKYASQSISGIPSRFSGSGSGTDFTLSINSVETEDFGMYFCQQTNSWPLTFGAGTKLELK
	~2.5	0.0549	6880	4.34e-09 M (from the axes; none beside the number)	0.0351	15100	0.0144	human monoclonal antibody #129-L2 (antibody, human IgG1, kappa, V domains shown) VH: EVQLLESGGGLVQPGGSLRLSCAASGFTFSSYAMSWVRQAPGKGLEWVSDISGSGGSTYYADSVKGRFTISRDNSKNTLYLQMNSLRAEDTAVYYCARGYGMDVWGQGTMVTVSS VL: DIQMTQSPSSLSASVGDRVTITCRASQSVTNYLAWYQQKPGKAPKLLIYGASILETGVPSRFSGSGSGTDFTLTINSLQPEDFATYYCLQHASTPLTFGQGTKLEIKT
